Reference: IntAct's records for PubMed 19561611

B1: Hedgehog-interacting protein (Homo sapiens), Q96QV1-1 (parent)
chain: MLKMLSFKLLLLAVALGFFEGDAKFGERNEGSGARRRRCLNGNPPKRLKRRDRRMMSQLELLSGGEMLCGGFYPRLSCCLRSDSPGLGRLENKIFSVTNNTECGKLLEEIKCALCSPHSQSLFHSPEREVLERDLVLPLLCKDYCKEFFYTCRGHIPGFLQTTADEFCFYYARKDGGLCFPDFPRKQVRGPASNYLDQMEEYDKVEEISRKHKHNCFCIQEVVSGLRQPVGALHSGDGSQRLFILEKEGYVKILTPEGEIFKEPYLDIHKLVQSGIKGGDERGLLSLAFHPNYKKNGKLYVSYTTNQERWAIGPHDHILRVVEYTVSRKNPHQVDLRTARVFLEVAELHRKHLGGQLLFGPDGFLYIILGDGMITLDDMEEMDGLSDFTGSVLRLDVDTDMCNVPYSIPRSNPHFNSTNQPPEVFAHGLHDPGRCAVDRHPTDININLTILCSDSNGKNRSSARILQIIKGKDYESEPSLLEFKPFSNGPLVGGFVYRGCQSERLYGSYVFGDRNGNFLTLQQSPVTKQWQEKPLCLGTSGSCRGYFSGHILGFGEDELGEVYILSSSKSMTQTHNGKLYKIVDPKRPLMPEECRATVQPAQTLTSECSRLCRNGYCTPTGKCCCSPGWEGDFCRTAKCEPACRHGGVCVRPNKCLCKKGYLGPQCEQVDRNIRRVTRAGILDQIIDMTSYLLDLTSYIV

Variants of: B1
Conditions: with shh_mouse Shh

Variant | effect of a mutation on the interaction
D383A | disrupting interaction strength
D383R | disrupting interaction strength
